Reference: publication PMC12360457 (Nature, 2025)

Target: the molecule itself
Experiment: cryo-EM structure

B1: Hailong protein A (HalA) from Rhodobacteraceae bacterium QY30, purified as the detergent-solubilized HalA–ODA complex (natural protein)
chain: DTNAVKEPEPALPSAASRGRRTKNWWEPMFDANAPASFSVSDWNFSNNRGPRCTLFLAEKMPDATTLVVKDIDFQDCDFQGTFERKIVFKDCKFTRCDFGLSTFSRTKFSGCSFYASSFTQCTLENCEFRNCKYEKIFYSGNETQIPRTLIAEPYQFLFGACATVDSVPQGKSRFEQRARFEETRSTIARALLANLHSEGSEDTYYAAVKASTLSENRARIARALIKINSSASKGKSIISRAVSFLTGFASAISAVVGMLILLVMGSLNGWGSSISRAMLVGVVAISCVAYRYHYRFNLPPEDAMVKATEIFFLFGYTNYAKMGQEDFHLVFSNALLGLFWYAIAIPTISNRLTRARG
B1: binds.
